Test results: US12723279B2, “Long stokes shift chromenoquinoline dyes and uses in sequencing applications” (priority 2020, dated 2026)

What was measured:
Type in all cases: physicochemical
[1] = UV-Vis absorption of chromenoquinoline dye labeled ffA nucleotides
Experimental: (§1) The chromenoquinoline dye of Formula (I) (0.020 mmol) was coevaporated with 2×2 mL of anhydrous N,N′-dimethylformamide (DMF), then dissolved in 2 mL of anhydrous N,N′-dimethylacetamide (DMA). N,N-diisopropylethylamine (28.4 μL, 0.163 mmol) was added, followed by N,N,N′,N′-tetramethyl-O—(N-succinimidyl)uronium tetrafluoroborate as 0.1 M solution in anhydrous DMA (TSTU, 232 μL, 0.023 mmol). The reaction was stirred under nitrogen at RT for 30 minutes. In the meantime, an aqueous solution of the 2′-deoxyadenosine triphosphates-linker (0.01 mmol) was evaporated to dryness under reduced pressure and resuspended in 200 μL, of 0.1 M triethylammonium bicarbonate (TEAB) solution in water. The activated chromenoquinoline dye solution was added to the triphosphate and the reaction was stirred at RT for 18 hours. The crude product was purified firstly by ion-exchange chromatography on DEAE-Sephadex A25 (25 g). The fractions containing the triphosphate were pooled and the solvent was evaporated to dryness under reduced pressure. The crude material was further purified by preparative scale RP-HPLC using a YMC-Pack-Pro C18 column. The final compound was characterized by LC-MS, analytical RP-HPLC and UV-Vis spectroscopy.
(§2) In this example, the spectral properties of several fully functionalized A nucleotides (ffAs) conjugated with the chromenoquinoline dyes described herein were characterized. FIG. 1 illustrates the […] of ffA nucleotides conjugated with chromenoquinoline dyes I-1 through I-6 and I-8 as a 2 μM solution in Universal Scan Mix (USM, 1 M Tris pH 7.5, 0.05% TWEEN, 20 mM sodium ascorbate, 10 mM ethyl gallate). FIGS. 2A-2D show the fluorescence emission spectra of ffA nucleotide conjugated with chromenoquinoline dyes I-1 through I-6 and I-8 acquired using either 450 nm or 520 nm as excitation wavelengths in USM. The spectra were acquired on an Agilent Cary 100 UV-Vis Spectrophotometer and on a Cary Eclipse Fluorescence Spectrophotometer, using quartz or plastic cuvettes. It was observed that the chromenoquinoline dyes described herein can be excited under both blue and green light sources and also have strong fluorescent emission.

[2] = Fluorescence emission of chromenoquinoline dye labeled ffA nucleotides
Experimental: as §1, §2

[3] = Stability of dye labeled ffAs in aqueous solution at high pH (ethanolamine and glycine buffers, 45° C.); settings: 10 μM, dark, vs ffC labeled with coumarin reference dye A
Experimental: The stability of the compounds ffA-sPA-I-3 and ffA-sPA-I-4 in an aqueous solution at high pH was assessed by incubating a 10 μM solution of the given compound in two buffers: 1) 50 mM ethanolamine buffer, pH 9.6, 50 mM NaCl, 1 mM EDTA, 0.02% CHAPS, 4 mM MgSO4; 2) 50 mM glycine buffer, pH 9.8, 50 mM NaCl, 1 mM EDTA, 0.2% CHAPS, 4 mM MgSO4 at 45° C. in the dark for 6 days. At set time points, the UV-VIS absorption and fluorescence emission of the solutions were measured on an Agilent Cary 100 UV-Vis Spectrophotometer and on a Cary Eclipse Fluorescence Spectrophotometer, using quartz cuvettes. In addition, aliquots of the solutions were taken and analyzed by analytical HPLC. […] The coumarin reference dye A is disclosed in U.S. Publication No. 2018/0094140, having the structure moiety

[4] = 50 mM ethanolamine buffer pH 9.6, 45° C., 6 days (FIG. 3A)
[5] = 50 mM glycine buffer pH 9.8, 45° C., 6 days (FIG. 3B)

| Structure (SMILES) | UV-VIS λmax [1] [nm] | Fluorescence em. λmax [2] [nm] | fluorescence emission over time [3, 4] | fluorescence emission over time [3, 5] |
| --- | --- | --- | --- | --- |
| C=CCOCOC1C[C@H](n2cc(/C=C/CNC(=O)COC(COc3cccc(C(=O)NCCCCCNC(=O)CCCN4CCCc5cc6c(cc54)OCc4cc5cc(OC)c(OC)cc5[n+](C)c4-6)c3)OCC=C)c3c(N)ncnc32)O[C@@H]1COP(=O)(O)OP(=O)(O)OP(=O)(O)O (stereo partly shown) [ffA-(DB)-AOM-AOL-I-4] | 500 | 578 | – | – |
| C=CCOCOC1C[C@H](n2cc(C#CCNC(=O)COC(COc3cccc(C(=O)NCCCCCNC(=O)CCCN4CCCc5cc6c(cc54)OCc4cc5cc(OC)c(OC)cc5[n+](C)c4-6)c3)OCC=C)c3c(N)ncnc32)O[C@@H]1COP(=O)(O)OP(=O)(O)OP(=O)(O)O (stereo partly shown) [ffA-AOM-AOL-I-4] | 500 | 578 | – | – |
| COc1ccc2c(c1)cc1c([n+]2C)-c2cc3c(cc2OC1)N(CCCC(=O)NCCNC(=O)c1cccc(OCC(N=[N+]=[N-])OCCOCC(=O)NCC#Cc2cn([C@H]4CC(OCN=[N+]=[N-])[C@@H](COP(=O)(O)OP(=O)(O)OP(=O)(O)O)O4)c4ncnc(N)c24)c1)CCC3 (stereo partly shown) [ffA-LN3-I-1] | 503 | 590 | – | – |
| Cc1ccc2c(c1)cc1c([n+]2C)-c2cc3c(cc2OC1)N(CCCC(=O)NCCNC(=O)c1cccc(OCC(N=[N+]=[N-])OCCOCC(=O)NCC#Cc2cn([C@H]4CC(OCN=[N+]=[N-])[C@@H](COP(=O)(O)OP(=O)(O)OP(=O)(O)O)O4)c4ncnc(N)c24)c1)CCC3 (stereo partly shown) [ffA-LN3-I-2] | 500 | 582 | – | – |
| COc1ccc2c(c1)cc1c([n+]2C)-c2cc3c(cc2OC1)N(CCCC(=O)NCCNC(=O)c1cccc(OCC(N=[N+]=[N-])OCCOCC(=O)NCC#Cc2cn([C@H]4CC(OCN=[N+]=[N-])[C@@H](COP(=O)(O)OP(=O)(O)OP(=O)(O)O)O4)c4ncnc(N)c24)c1)C(C)(C)CC3C (stereo partly shown) [ffA-LN3-I-5] | 501 | 585 | – | – |
| CCN(CC)c1ccc2c(c1)OCc1cc3cc(CC(=O)NCCNC(=O)c4cccc(OCC(N=[N+]=[N-])OCCOCC(=O)NCC#Cc5cn([C@H]6CC(OCN=[N+]=[N-])[C@@H](COP(=O)(O)OP(=O)(O)OP(=O)(O)O)O6)c6ncnc(N)c56)c4)ccc3[n+](C)c1-2 (stereo partly shown) [ffA-LN3-I-6] | 495 | 574 | – | – |
| Cc1cc2cc3c([n+](C)c2cc1C)-c1cc2c(cc1OC3)N(CCCC(=O)NCCCCCNC(=O)c1cccc(OCC(N=[N+]=[N-])OCC(=O)NCC#Cc3cn([C@H]4CC(OCN=[N+]=[N-])[C@@H](COP(=O)(O)OP(=O)(O)OP(=O)(O)O)O4)c4ncnc(N)c34)c1)CCC2 (stereo partly shown) [ffA-sPA-LN3-I-3] | 500 | 578 | decreased very slowly over time | decreased very slowly over time |
| COc1cc2cc3c([n+](C)c2cc1OC)-c1cc2c(cc1OC3)N(CCCC(=O)NCCCCCNC(=O)c1cccc(OCC(N=[N+]=[N-])OCC(=O)NCC#Cc3cn([C@H]4CC(OCN=[N+]=[N-])[C@@H](COP(=O)(O)OP(=O)(O)OP(=O)(O)O)O4)c4ncnc(N)c34)c1)CCC2 (stereo partly shown) [ffA-sPA-LN3-I-4] | 500 | 578 | decreased very slowly over time | decreased very slowly over time |
| COc1cc2c(cc3c([n+]2C)-c2cc4c(cc2OC3)N(CCCC(=O)NCCCCCNC(=O)c2cccc(OCC(N=[N+]=[N-])OCC(=O)NCC#Cc3cn([C@H]5CC(OCN=[N+]=[N-])[C@@H](COP(=O)(O)OP(=O)(O)OP(=O)(O)O)O5)c5ncnc(N)c35)c2)CCC4)c(OC)c1OC (stereo partly shown) [ffA-sPA-LN3-I-8] | 500 | 583 | – | – |
